Data from the supplement of paper PMC11246515.
± gives the standard deviation of the averaged measurements.

Assay: total protein half-life in vivo (active degradation + dilution); higher = more stable protein
[1] = E. coli NCM3722 delta-clpP delta-lon delta-hslV, growth: N-lim chemostat, doubling time 6 h
[2] = E. coli NCM3722 delta-clpP, growth: N-lim chemostat, doubling time 6 h
[3] = E. coli NCM3722 delta-hslV, growth: N-lim chemostat, doubling time 6 h
[4] = E. coli NCM3722 delta-lon, growth: N-lim chemostat, doubling time 6 h
[5] = E. coli NCM3722 delta-smpB, growth: N-lim chemostat, doubling time 6 h
[6] = wild type E. coli NCM3722, growth: C-lim chemostat, doubling time 3 h
[7] = wild type E. coli NCM3722, growth: C-lim chemostat, doubling time 6 h
[8] = wild type E. coli NCM3722, growth: C-lim chemostat, doubling time 12 h
[9] = wild type E. coli NCM3722, growth: N-lim chemostat, doubling time 6 h
[10] = wild type E. coli NCM3722, growth: N-lim chemostat, doubling time 12 h
[11] = wild type E. coli NCM3722, growth: P-lim chemostat, doubling time 6 h
[12] = wild type E. coli NCM3722, growth: P-lim chemostat, doubling time 12 h

Row | Sequence | total protein half-life in vivo [1] | total protein half-life in vivo [2] | total protein half-life in vivo [3] | total protein half-life in vivo [4] | total protein half-life in vivo [5] | total protein half-life in vivo [6] | total protein half-life in vivo [7] | total protein half-life in vivo [8] | total protein half-life in vivo [9] | total protein half-life in vivo [10] | total protein half-life in vivo [11] | total protein half-life in vivo [12]
1 | MSLKEKTQSLFANAFGYPATHTIQAPGRVNLIGEHTDYNDGFVLPCAIDYQTVISCAPRDDRKVRVMAADYENQLDEFSLDAPIVAHENYQWANYVRGVVKHLQLRNNSFGGVDMVISGNVPQGAGLSSSASLEVAVGTVLQQLYHLPLDGAQIALNGQEAENQFVGCNCGIMDQLISALGKKDHALLIDCRSLGTKAVSMPKGVAVVIINSNFKRTLVGSEYNTRREQCETGARFFQQPALRDVTIEEFNAVAHELDPIVAKRVRHILTENARTVEAASALEQGDLKRMGELMAESHASMRDDFEITVPQIDTLVEIVKAVIGDKGGVRMTGGGFGGCIVALIPEELVPAVQQAVAEQYEAKTGIKETFYVCKPSQGAGQC [P0A6T3] | 5.59 ± 2 h | 6.35 h | 5.09 ± 1.2 h | 5.29 ± 0.75 h | 4.573 ± 0.04 h | 3.22 ± 0.53 h | 5.71 ± 0.33 h | 12.7 ± 2 h | 4.53 ± 0.13 h | 7.14 ± 0.81 h | 6.11 ± 0.1 h | 11.9 ± 0.71 h
2 | MSLLNVPAGKDLPEDIYVVIEIPANADPIKYEIDKESGALFVDRFMSTAMFYPCNYGYINHTLSLDGDPVDVLVPTPYPLQPGSVIRCRPVGVLKMTDEAGEDAKLVAVPHSKLSKEYDHIKDVNDLPELLKAQIAHFFEHYKDLEKGKWVKVEGWENAEAAKAEIVASFERAKNK [P0A7A9] | 5.91 ± 0.78 h | 4.83 ± 0.22 h | 5.09 ± 0.49 h | 6.36 ± 0.52 h | 5.358 ± 0.02 h | 3.48 ± 0.71 h | 5.73 ± 0.47 h | 10.6 ± 0.65 h | 4.34 ± 0.4 h | 8.63 ± 0.47 h | 5.65 ± 1.4 h | 14.4 ± 1.1 h
3 | MSLNMFWFLPTHGDGHYLGTEEGSRPVDHGYLQQIAQAADRLGYTGVLIPTGRSCEDAWLVAASMIPVTQRLKFLVALRPSVTSPTVAARQAATLDRLSNGRALFNLVTGSDPQELAGDGVFLDHSERYEASAEFTQVWRRLLQRETVDFNGKHIHVRGAKLLFPAIQQPYPPLYFGGSSDVAQELAAEQVDLYLTWGEPPELVKEKIEQVRAKAAAHGRKIRFGIRLHVIVRETNDEAWQAAERLISHLDDETIAKAQAAFARTDSVGQQRMAALHNGKRDNLEISPNLWAGVGLVRGGAGTALVGDGPTVAARINEYAALGIDSFVLSGYPHLEEAYRVGELLFPLLDVAIPEIPQPQPLNPQGEAVANDFIPRKVAQS | 5.43 ± 0.79 h |  |  |  |  |  |  |  |  |  |  | 
4 | MSLPFLRTLQGDRFFQLLILVGIGLSFFVPFAPKSWPAAIDWHTIITLSGLMLLTKGVELSGYFDVLGRKMVRRFATERRLAMFMVLAAALLSTFLTNDVALFIVVPLTITLKRLCEIPVNRLIIFEALAVNAGSLLTPIGNPQNILIWGRSGLSFAGFIAQMAPLAGAMMLTLLLLCWCCFPGKAMQYHTGVQTPEWKPRLVWSCLGLYIVFLTALEFKQELWGLVIVAAGFALLARRVVLSVDWTLLLVFMAMFIDVHLLTQLPALQGVLGNVSHLSEPGLWLTAIGLSQVISNVPSTILLLNYVPPSLLLVWAVNVGGFGLLPGSLANLIALRMANDRRIWWRFHLYSIPMLLWAALVGYVLLVILPAN |  |  |  |  |  |  |  |  |  | 9.39 h |  | 
5 | MSLSRRQFIQASGIALCAGAVPLKASAAGQQQPLPVPPLLESRRGQPLFMTVQRAHWSFTPGTRASVWGINGRYLGPTIRVWKGDDVKLIYSNRLTENVSMTVAGLQVPGPLMGGPARMMSPNADWAPVLPIRQNAATLWYHANTPNRTAQQVYNGLAGMWLVEDEVSKSLPIPNHYGVDDFPVIIQDKRLDNFGTPEYNEPGSGGFVGDTLLVNGVQSPYVEVSRGWVRLRLLNASNSRRYQLQMNDGRPLHVISGDQGFLPAPVSVKQLSLAPGERREILVDMSNGDEVSITCGEAASIVDRIRGFFEPSSILVSTLVLTLRPTGLLPLVTDSLPMRLLPTEIMAGSPIRSRDISLGDDPGINGQLWDVNRIDVTAQQGTWERWTVRADEPQAFHIEGVMFQIRNVNGAMPFPEDRGWKDTVWVDGQVELLVYFGQPSWAHFPFYFNSQTLEMADRGSIGQLLVNPVP | 6.39 ± 0.28 h | 6.3 ± 0.19 h | 6.17 ± 0.57 h | 6.21 ± 0.34 h | 6.12 ± 0.66 h | 3.28 ± 0.037 h | 6.047 ± 0.037 h | 11.19 ± 0.06 h | 6.13 ± 0.41 h | 13.5 ± 0.45 h | 5.88 ± 0.35 h | 12.5 ± 0.35 h
6 | MSMIKSYAAKEAGGELEVYEYDPGELRPQDVEVQVDYCGICHSDLSMIDNEWGFSQYPLVAGHEVIGRVVALGSAAQDKGLQVGQRVGIGWTARSCGHCDACISGNQINCEQGAVPTIMNRGGFAEKLRADWQWVIPLPENIDIESAGPLLCGGITVFKPLLMHHITATSRVGVIGIGGLGHIAIKLLHAMGCEVTAFSSNPAKEQEVLAMGADKVVNSRDPQALKALAGQFDLIINTVNVSLDWQPYFEALTYGGNFHTVGAVLTPLSVPAFTLIAGDRSVSGSATGTPYELRKLMRFAARSKVAPTTELFPMSKINDAIQHVRDGKARYRVVLKADF | 5.793 ± 0.025 h | 5.68 ± 0.17 h |  | 5.65 ± 0.11 h | 5.22 ± 1.4 h | 2.17 ± 0.36 h | 6.43 ± 1.3 h | 11 ± 1.4 h | 5.42 ± 0.12 h | 10.8 ± 0.24 h | 5.84 ± 0.26 h | 11.9 ± 0.73 h
7 | MSMSTSTEVIAHHWAFAIFLIVAIGLCCLMLVGGWFLGGRARARSKNVPFESGIDSVGSARLRLSAKFYLVAMFFVIFDVEALYLFAWSTSIRESGWVGFVEAAIFIFVLLAGLVYLVRIGALDWTPARSRRERMNPETNSIANRQR [P0AFC3] | 7.01 ± 0.28 h |  | 6.15 ± 1.1 h |  | 6.317 ± 0.023 h | 3.72 ± 0.32 h |  | 13 ± 0.5 h | 6.22 ± 0.18 h |  | 6.293 ± 0.024 h | 14.3 ± 2.1 h
8 | MSMVETAPSKIQVRNLNFYYGKFHALKNINLDIAKNQVTAFIGPSGCGKSTLLRTFNKMFELYPEQRAEGEILLDGDNILTNSQDIALLRAKVGMVFQKPTPFPMSIYDNIAFGVRLFEKLSRADMDERVQWALTKAALWNETKDKLHQSGYSLSGGQQQRLCIARGIAIRPEVLLLDEPCSALDPISTGRIEELITELKQDYTVVIVTHNMQQAARCSDHTAFMYLGELIEFSNTDDLFTKPAKKQTEDYITGRYG [P0AAH0] | 5.28 ± 0.14 h |  | 4.78 ± 0.28 h | 5.5 ± 0.56 h | 4.68 ± 0.39 h | 3.05 ± 0.094 h |  | 9.16 ± 0.51 h | 4.81 ± 0.24 h | 9.09 ± 0.47 h | 5.49 ± 0.53 h | 12.1 ± 0.36 h
